The results in this text go back to PMC9330637.

Broadly, the Kd is a measure of binding affinity in units of concentration. A high value points to lower affinity.

Read-outs that look alike come from different tables or passages of the source.

Data set [1] has as its target T1, FUS wild-type (UniProt P35637 1-526). Put plainly: fluorescence anisotropy. Background: Fluorescence polarisation rises when a labelled molecule tumbles more slowly, as on binding a larger partner.
In data set [2] the target is T1, FUS wild-type. Put plainly: single-molecule fluorescence.
The target in the next data set is FUS Y>S (UniProt P35637 1-526, Y6S;Y14S;Y17S;Y25S;Y33S;Y38S;Y41S;Y50S;Y55S;Y58S;Y66S;Y75S;Y81S;Y91S;Y97S;Y100S; …). In words: single-molecule fluorescence.
The target of data set [3] is T1, FUS wild-type. Put plainly: single-molecule fluorescence. The source holds these as a separate data set.

UUUUUUUUUUUUUUUUUUUUUUUUUUUUUUUUUUUUUUUU (ssRNA) [U40 RNA] gave a dissociation constant (Kd) with FUS wild-type [1] of about 5 nM.

B1: pdPAR22 (mixed)
DNA 1: TGGCGACGGCAGCGAGGC
DNA 2: GCCTCGCTGCCGTCGCCA
modifications: PAR 22-mer joined to DNA strand 1 by alkyne-azide click; PAR not part of printed strand
Take B1: the binding result in the data set with FUS wild-type [2] and with FUS Y>S was “binds” in each case.

B2: pdPAR9 (mixed)
DNA 1: TGGCGACGGCAGCGAGGC
DNA 2: GCCTCGCTGCCGTCGCCA
modifications: PAR 9-mer joined to DNA strand 1 by alkyne-azide click; PAR not part of printed strand
For B2, the binding result in the data set with FUS wild-type [2] is “binds”.

B3: pdU50 RNA (mixed)
RNA 1: UUUUUUUUUUUUUUUUUUUUUUUUUUUUUUUUUUUUUUUUUUUUUUUUUUGCCUCGCUGCCGUCGCCA
RNA 2: UGGCGACGGCAGCGAGGC
Regarding B3, the binding result in the data set with FUS wild-type [3] is given as “binds”.
